The data set deals with T1, TSEN2;TSEN34;TSEN15;TSEN54 (Homo sapiens;Homo sapiens;Homo …, UniProt Q8NCE0;Q9BSV6;Q8WW01;Q7Z6J9 1-465;1-310;1-171;1-526, |||).
T1 sequence 1: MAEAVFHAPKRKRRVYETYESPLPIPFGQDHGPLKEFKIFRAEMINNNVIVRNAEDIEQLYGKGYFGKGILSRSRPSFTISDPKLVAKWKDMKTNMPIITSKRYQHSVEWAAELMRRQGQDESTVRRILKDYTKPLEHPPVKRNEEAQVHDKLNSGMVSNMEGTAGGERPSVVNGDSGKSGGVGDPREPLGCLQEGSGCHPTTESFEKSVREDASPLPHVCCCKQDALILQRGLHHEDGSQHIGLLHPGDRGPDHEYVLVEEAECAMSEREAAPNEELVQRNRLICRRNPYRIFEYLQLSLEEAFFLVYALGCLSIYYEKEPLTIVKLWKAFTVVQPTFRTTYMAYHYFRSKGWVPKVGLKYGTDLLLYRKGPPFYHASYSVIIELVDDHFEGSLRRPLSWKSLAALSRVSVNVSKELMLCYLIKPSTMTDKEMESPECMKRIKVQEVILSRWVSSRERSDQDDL
T1 sequence 2: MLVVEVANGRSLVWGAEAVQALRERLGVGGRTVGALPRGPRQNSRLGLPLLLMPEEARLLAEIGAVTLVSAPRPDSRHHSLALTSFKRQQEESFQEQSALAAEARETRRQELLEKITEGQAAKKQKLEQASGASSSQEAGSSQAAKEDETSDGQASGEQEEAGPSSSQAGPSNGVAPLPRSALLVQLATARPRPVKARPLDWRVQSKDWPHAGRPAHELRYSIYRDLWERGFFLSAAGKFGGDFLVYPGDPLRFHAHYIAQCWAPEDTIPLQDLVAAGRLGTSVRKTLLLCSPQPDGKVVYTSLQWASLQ
T1 sequence 3: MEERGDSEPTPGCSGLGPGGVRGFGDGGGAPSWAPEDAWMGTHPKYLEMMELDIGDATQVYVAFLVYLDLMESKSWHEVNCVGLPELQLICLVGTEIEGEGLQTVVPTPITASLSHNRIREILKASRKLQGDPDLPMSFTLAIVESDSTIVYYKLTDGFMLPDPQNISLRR
T1 sequence 4: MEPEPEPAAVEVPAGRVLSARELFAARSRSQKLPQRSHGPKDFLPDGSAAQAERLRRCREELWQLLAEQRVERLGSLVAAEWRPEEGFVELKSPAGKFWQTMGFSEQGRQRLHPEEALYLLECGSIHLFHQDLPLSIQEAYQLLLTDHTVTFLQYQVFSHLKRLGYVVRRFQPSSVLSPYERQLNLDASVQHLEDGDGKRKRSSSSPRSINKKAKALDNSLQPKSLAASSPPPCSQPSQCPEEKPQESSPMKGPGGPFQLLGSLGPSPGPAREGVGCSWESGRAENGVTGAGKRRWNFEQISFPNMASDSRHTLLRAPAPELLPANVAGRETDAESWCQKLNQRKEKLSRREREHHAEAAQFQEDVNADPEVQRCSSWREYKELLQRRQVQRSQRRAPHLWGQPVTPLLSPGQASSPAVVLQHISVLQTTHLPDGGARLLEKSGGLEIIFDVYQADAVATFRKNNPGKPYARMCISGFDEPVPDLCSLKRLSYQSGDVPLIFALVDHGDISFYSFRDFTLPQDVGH
As to the kind of experiment: cryo-EM structure (3.2 A); wild-type active complex; Protein (EM) buffer: 20 mM HEPES pH 8.0, 150 mM NaCl, 1 mM MgCl2, 5 mM DTT; complex formation conditions and temperature not in the material. Particulars: protein: recombinant;recombinant;recombinant;recombinant; tags: none stated;none stated;N-terminal 6xHis;N-terminal GST removed by TEV; copies: 1;1;1;1; pre-tRNA fold, single strand with anticodon-intron stem and 3' bulge.

Data on one molecule can be found in article PMC10539383, “Recognition and cleavage mechanism of intron-containing pre-tRNA by human TSEN endonuclease complex”.

B1: pre-tRNAArgTCT (structured_RNA)
RNA: GGGGGCUCUGUGGCGCAAUGGAUAGCGCAUUGGACUUCUAGUGACGAAUAGAGCAAUUCAAAGGUUGUGGGUUCGAAUCCCACCAGAGUCG
Consider B1, for which the binding result is given as “binds”.
